Where a chain is given by its changes, count along the chain named. In names and notes the source's numbering stands.
B1: G392T: HAB1 mutant (protein, UniProt Q9CAJ0 23-511, looked up, variant G392T)
Protein phosphatase 2C 16: SPVEITQLKNVTDAADLLSDSENQSFCNGGTECTMEDVSELEEVGEQDLLKTLSDTRSGSSNVFDEDDVLSVVEDNSAVISEGLLVVDAGSELSLSNTAMEIDNGRVLATAIIVGESSIEQVPTAEVLIAGVNQDTNTSEVVIRLPDENSNHLVKGRSVYELDCIPLWGTVSIQGNRSEMEDAFAVSPHFLKLPIKMLMGDHEGMSPSLTHLTGHFFGVYDGHGGHKVADYCRDRLHFALAEEIERIKDELCKRNTGEGRQVQWDKVFTSCFLTVDGEIEGKIGRAVVGSSDKVLEAVASETVGSTAVVALVCSSHIVVSNCGDSRAVLFRGKEAMPLSVDHKPDREDEYARIENAGGKVIQWQGARVFTVLAMSRSIGDRYLKPYVIPEPEVTFMPRSREDECLILASDGLWDVMNNQEVCEIARRRILMWHKKNGAPPLAERGKGIDPACQAAADYLSMLALQKGSKDNISIIVIDLKAQRKFKTRT
B2: Y404D: HAB1 mutant (protein, UniProt Q9CAJ0 23-511, looked up, variant Y404D)
Protein phosphatase 2C 16: B1 Protein phosphatase 2C 16 with T370G, Y382D
B3: Y404P: HAB1 mutant (protein, UniProt Q9CAJ0 23-511, looked up, variant Y404P)
Protein phosphatase 2C 16: B1 Protein phosphatase 2C 16 with T370G, Y382P
B4: Y404R: HAB1 mutant (protein, UniProt Q9CAJ0 23-511, looked up, variant Y404R)
Protein phosphatase 2C 16: B1 Protein phosphatase 2C 16 with T370G, Y382R
B5: G392W: HAB1 mutant (protein, UniProt Q9CAJ0 23-511, looked up, variant G392W)
Protein phosphatase 2C 16: B1 Protein phosphatase 2C 16 with T370W
B6: Y404T: HAB1 mutant (protein, UniProt Q9CAJ0 23-511, looked up, variant Y404T)
Protein phosphatase 2C 16: B1 Protein phosphatase 2C 16 with T370G, Y382T
B7: Y404E: HAB1 mutant (protein, UniProt Q9CAJ0 23-511, looked up, variant Y404E)
Protein phosphatase 2C 16: B1 Protein phosphatase 2C 16 with T370G, Y382E
B8: G392I: HAB1 mutant (protein, UniProt Q9CAJ0 23-511, looked up, variant G392I)
Protein phosphatase 2C 16: B1 Protein phosphatase 2C 16 with T370I
B9: G392Y: HAB1 mutant (protein, UniProt Q9CAJ0 23-511, looked up, variant G392Y)
Protein phosphatase 2C 16: B1 Protein phosphatase 2C 16 with T370Y
B10: G392V: HAB1 mutant (protein, UniProt Q9CAJ0 23-511, looked up, variant G392V)
Protein phosphatase 2C 16: B1 Protein phosphatase 2C 16 with T370V
B11: Y404S: HAB1 mutant (protein, UniProt Q9CAJ0 23-511, looked up, variant Y404S)
Protein phosphatase 2C 16: B1 Protein phosphatase 2C 16 with T370G, Y382S
B12: G392H: HAB1 mutant (protein, UniProt Q9CAJ0 23-511, looked up, variant G392H)
Protein phosphatase 2C 16: B1 Protein phosphatase 2C 16 with T370H
B13: G392C: HAB1 mutant (protein, UniProt Q9CAJ0 23-511, looked up, variant G392C)
Protein phosphatase 2C 16: B1 Protein phosphatase 2C 16 with T370C
B14: Y404G: HAB1 mutant (protein, UniProt Q9CAJ0 23-511, looked up, variant Y404G)
Protein phosphatase 2C 16: B1 Protein phosphatase 2C 16 with T370G, Y382G
B15: G392E: HAB1 mutant (protein, UniProt Q9CAJ0 23-511, looked up, variant G392E)
Protein phosphatase 2C 16: B1 Protein phosphatase 2C 16 with T370E
B16: G392F: HAB1 mutant (protein, UniProt Q9CAJ0 23-511, looked up, variant G392F)
Protein phosphatase 2C 16: B1 Protein phosphatase 2C 16 with T370F
B17: G392K: HAB1 mutant (protein, UniProt Q9CAJ0 23-511, looked up, variant G392K)
Protein phosphatase 2C 16: B1 Protein phosphatase 2C 16 with T370K
B18: Y404N: HAB1 mutant (protein, UniProt Q9CAJ0 23-511, looked up, variant Y404N)
Protein phosphatase 2C 16: B1 Protein phosphatase 2C 16 with T370G, Y382N
B19: G392D: HAB1 mutant (protein, UniProt Q9CAJ0 23-511, looked up, variant G392D)
Protein phosphatase 2C 16: B1 Protein phosphatase 2C 16 with T370D
B20: Y404Q: HAB1 mutant (protein, UniProt Q9CAJ0 23-511, looked up, variant Y404Q)
Protein phosphatase 2C 16: B1 Protein phosphatase 2C 16 with T370G, Y382Q
B21: V393Q: HAB1 mutant (protein, listed as Arabidopsis thaliana)
chain: MEEMTPAVAMTLSLAANTMCESSPVEITQLKNVTDAADLLSDSENQSFCNGGTECTMEDVSELEEVGEQDLLKTLSDTRSGSSNVFDEDDVLSVVEDNSAVISEGLLVVDAGSELSLSNTAMEIDNGRVLATAIIVGESSIEQVPTAEVLIAGVNQDTNTSEVVIRLPDENSNHLVKGRSVYELDCIPLWGTVSIQGNRSEMEDAFAVSPHFLKLPIKMLMGDHEGMSPSLTHLTGHFFGVYDGHGGHKVADYCRDRLHFALAEEIERIKDELCKRNTGEGRQVQWDKVFTSCFLTVDGEIEGKIGRAVVGSSDKVLEAVASETVGSTAVVALVCSSHIVVSNCGDSRAVLFRGKEAMPLSVDHKPDREDEYARIENAGGKVIQWQGARVFGQLAMSRSIGDRYLKPYVIPEPEVTFMPRSREDECLILASDGLWDVMNNQEVCEIARRRILMWHKKNGAPPLAERGKGIDPACQAAADYLSMLALQKGSKDNISIIVIDLKAQRKFKTRT
B22: V393K: HAB1 mutant (protein, listed as Arabidopsis thaliana)
chain: B21 chain with Q393K
B23: V393R: HAB1 mutant V393R, denoted HAB1^! (protein, listed as Arabidopsis thaliana)
chain: B21 chain with Q393R

Molecular target: T1, PYR1 (Arabidopsis thaliana, UniProt O49686)
T1 construct: expressed in transfected cells; host or cells: S. cerevisiae strain Y190
T1 sequence (O49686 1-191): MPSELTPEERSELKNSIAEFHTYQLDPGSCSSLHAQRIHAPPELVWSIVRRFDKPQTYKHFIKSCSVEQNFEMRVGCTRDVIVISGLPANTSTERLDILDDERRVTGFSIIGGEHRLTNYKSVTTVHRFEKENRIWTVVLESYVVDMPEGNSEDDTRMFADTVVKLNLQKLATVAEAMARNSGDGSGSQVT
Assay: Yeast two hybrid of pACT-HAB1 site saturation mutants with pBD-PYR1 on 10 μM ABA, β-galactosidase staining
Type: cell-based
Set-up: key: x: Mutations in HAB1 that disrupt HAB1 interaction with PYR1
Conditions: S. cerevisiae Y190, 10 μM ABA; dead = lack of detectable staining in comparison to wild type control
How it was run: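 HAB1 (lacking three N-terminal residues) site-saturation mutants in pACT were co-transformed with pBD-PYR1 into S. cerevisiae Y190 and spotted on SD (-Leu,-Trp) with 10 μM ABA. After 2 days at 30 °C, chloroform-lysed colonies were stained for β-galactosidase; "dead" means no detectable staining versus wild-type pair.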

Molecule	Mutations in HAB1 that disrupt HAB1 interaction with PYR1
B1	x
B2	x
B3	x
B4	x
B5	x
B6	x
B7	x
B8	x
B9	x
B10	x
B11	x
B12	x
B13	x
B14	x
B15	x
B16	x
B17	x
B18	x
B19	x
B20	x
B21	x
B22	x
B23	x
